B1: Low-density lipoprotein receptor-related protein 4 (Homo sapiens), O75096 (parent)
chain: MRRQWGALLLGALLCAHGLASSPECACGRSHFTCAVSALGECTCIPAQWQCDGDNDCGDHSDEDGCILPTCSPLDFHCDNGKCIRRSWVCDGDNDCEDDSDEQDCPPRECEEDEFPCQNGYCIRSLWHCDGDNDCGDNSDEQCDMRKCSDKEFRCSDGSCIAEHWYCDGDTDCKDGSDEENCPSAVPAPPCNLEEFQCAYGRCILDIYHCDGDDDCGDWSDESDCSSHQPCRSGEFMCDSGLCINAGWRCDGDADCDDQSDERNCTTSMCTAEQFRCHSGRCVRLSWRCDGEDDCADNSDEENCENTGSPQCALDQFLCWNGRCIGQRKLCNGVNDCGDNSDESPQQNCRPRTGEENCNVNNGGCAQKCQMVRGAVQCTCHTGYRLTEDGHTCQDVNECAEEGYCSQGCTNSEGAFQCWCETGYELRPDRRSCKALGPEPVLLFANRIDIRQVLPHRSEYTLLLNNLENAIALDFHHRRELVFWSDVTLDRILRANLNGSNVEEVVSTGLESPGGLAVDWVHDKLYWTDSGTSRIEVANLDGAHRKVLLWQNLEKPRAIALHPMEGTIYWTDWGNTPRIEASSMDGSGRRIIADTHLFWPNGLTIDYAGRRMYWVDAKHHVIERANLDGSHRKAVISQGLPHPFAITVFEDSLYWTDWHTKSINSANKFTGKNQEIIRNKLHFPMDIHTLHPQRQPAGKNRCGDNNGGCTHLCLPSGQNYTCACPTGFRKISSHACAQSLDKFLLFARRMDIRRISFDTEDLSDDVIPLADVRSAVALDWDSRDDHVYWTDVSTDTISRAKWDGTGQEVVVDTSLESPAGLAIDWVTNKLYWTDAGTDRIEVANTDGSMRTVLIWENLDRPRDIVVEPMGGYMYWTDWGASPKIERAGMDASGRQVIISSNLTWPNGLAIDYGSQRLYWADAGMKTIEFAGLDGSKRKVLIGSQLPHPFGLTLYGERIYWTDWQTKSIQSADRLTGLDRETLQENLENLMDIHVFHRRRPPVSTPCAMENGGCSHLCLRSPNPSGFSCTCPTGINLLSDGKTCSPGMNSFLIFARRIDIRMVSLDIPYFADVVVPINITMKNTIAIGVDPQEGKVYWSDSTLHRISRANLDGSQHEDIITTGLQTTDGLAVDAIGRKVYWTDTGTNRIEVGNLDGSMRKVLVWQNLDSPRAIVLYHEMGFMYWTDWGENAKLERSGMDGSDRAVLINNNLGWPNGLTVDKASSQLLWADAHTERIEAADLNGANRHTLVSPVQHPYGLTLLDSYIYWTDWQTRSIHRADKGTGSNVILVRSNLPGLMDMQAVDRAQPLGFNKCGSRNGGCSHLCLPRPSGFSCACPTGIQLKGDGKTCDPSPETYLLFSSRGSIRRISLDTSDHTDVHVPVPELNNVISLDYDSVDGKVYYTDVFLDVIRRADLNGSNMETVIGRGLKTTDGLAVDWVARNLYWTDTGRNTIEASRLDGSCRKVLINNSLDEPRAIAVFPRKGYLFWTDWGHIAKIERANLDGSERKVLINTDLGWPNGLTLDYDTRRIYWVDAHLDRIESADLNGKLRQVLVSHVSHPFALTQQDRWIYWTDWQTKSIQRVDKYSGRNKETVLANVEGLMDIIVVSPQRQTGTNACGVNNGGCTHLCFARASDFVCACPDEPDSRPCSLVPGLVPPAPRATGMSEKSPVLPNTPPTTLYSSTTRTRTSLEEVEGRCSERDARLGLCARSNDAVPAAPGEGLHISYAIGGLLSILLILVVIAALMLYRHKKSKFTDPGMGNLTYSNPSYRTSTQEVKIEAIPKPAMYNQLCYKKEGGPDHNYTKEKIKIVEGICLLSGDDAEWDDLKQLRSSRGGLLRDHVCMKTDTVSIQASSGSLDDTETEQLLQEEQSECSSVHTAATPERRGSLPDTGWKHERKLSSESQV

Variants of B1 are the subject of the experiment. The following applies: with sost_human SOST.
Take R1170W: the “effect of a mutation on the interaction” value is “decreasing interaction”. Regarding W1186S, the “effect of a mutation on the interaction” value was “decreasing interaction”.

The values are drawn from IntAct's records for PubMed 21471202.
